Experimental data from patent publication US20190216947A1.

What was measured:
Mouse CD47 (mouse) = Mouse CD47 (mouse) (UniProt Q61735); assay: SPR
Human CD47 (human) = Human CD47 (human) (UniProt Q08722); assay: SPR
Human CD47 (human), sequence (Q08722 19-139 limits assumed): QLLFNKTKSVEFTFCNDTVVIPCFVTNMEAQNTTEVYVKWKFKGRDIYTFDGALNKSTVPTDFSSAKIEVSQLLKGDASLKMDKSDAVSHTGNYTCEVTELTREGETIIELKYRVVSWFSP

Mouse CD47 (mouse), sequence (Q61735 19-140 limits assumed): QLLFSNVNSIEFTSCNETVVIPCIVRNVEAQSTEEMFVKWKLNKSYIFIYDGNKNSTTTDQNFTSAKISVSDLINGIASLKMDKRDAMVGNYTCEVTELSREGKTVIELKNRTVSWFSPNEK

monomeric SIRPα (mSIRPα) (receptor) showed a Kd (Mouse CD47 (mouse)) of 6.2 nM, a koff (Mouse CD47 (mouse)) of 0.011 s⁻¹ and a kon (Mouse CD47 (mouse)) of 1.8e+06 M⁻¹ s⁻¹. For the same substance, the Kd (Human CD47 (human)) was 0.0054 nM, the koff (Human CD47 (human)) was 3.7e-05 s⁻¹ and the kon (Human CD47 (human)) was 7e+06 M⁻¹ s⁻¹.
